From patent publication US20240382610A1 (TALLAC THERAPEUTICS, published 2024)
Residue numbers refer to the chain shown, from its start.

B1: TNT-194 (antibody, mouse IgG2a, kappa)
heavy: EVQLVQSGAEVKKPGASVKVSCKASGYTFTSYDINWVRQAPGQGLEWMGGIIPIFGTANYAQKFQGRVTITADESTSTAYMELRSLRSEDTAVYYCASTAVAGFGIDYWGQGTLVTVSSAKTTAPSVYPLAPVCGDTTGSSVTLGCLVKGYFPEPVTLTWNSGSLSSGVHTFPAVLQSDLYTLSSSVTVTSSTWPSQSITCNVAHPASSTKVDKKIEPRGPTIKPCPPCKCPAPNLLGGPSVFIFPPKIKDVLMISLSPIVTCVVVDVSEDDPDVQISWFVNNVEVHTAQTQTHREDYNSTLRVVSALPIQHQDWMSGKEFKCKVNNKDLPAPIERTISKPKGSVRAPQVYVLPPPEEEMTKKQVTLTCMVTDFMPEDIYVEWTNNGKTELNYKNTEPVLDSDGSYFMYSKLRVEKKNWVERNSYSCSVVHEGLHNHHTTKSFSRTPGRPQGFGPP
light: DIQMTQSPSSLSASVGDRVTITCRASQGISNYLAWFQQKPGKAPKSLISAASSLQSGVPSRFSGSGSGTDFTLTISSLQPEDFATYYCLQHDSFPITFGGGTKLEIKRADAAPTVSIFPPSSEQLTSGGASVVCFLNNFYPKDINVKWKIDGSERQNGVLNSWTDQDSKDSTYSMSSTLTLTKDEYERHNSYTCEATHKTSTSPIVKSFNRNEC
B2: TNT-195 (antibody, mouse IgG2a, kappa)
heavy: EVQLVQSGAEVKKPGSSVKVSCKASGGTFSSYAISWVRQAPGQGLEWMGGIIPIFGTANYAQKFQGRVTITADKSTSTAYMELSSLRSEDTAVYYCAAGYYYDSSGYYHQPYYFDYWGQGTLVTVSSAKTTAPSVYPLAPVCGDTTGSSVTLGCLVKGYFPEPVTLTWNSGSLSSGVHTFPAVLQSDLYTLSSSVTVTSSTWPSQSITCNVAHPASSTKVDKKIEPRGPTIKPCPPCKCPAPNLLGGPSVFIFPPKIKDVLMISLSPIVTCVVVDVSEDDPDVQISWFVNNVEVHTAQTQTHREDYNSTLRVVSALPIQHQDWMSGKEFKCKVNNKDLPAPIERTISKPKGSVRAPQVYVLPPPEEEMTKKQVTLTCMVTDFMPEDIYVEWTNNGKTELNYKNTEPVLDSDGSYFMYSKLRVEKKNWVERNSYSCSVVHEGLHNHHTTKSFSRTPGRPQGFGPP
light: B1 light with S10T, F36Y, S46L, S49Y, L89Q, H91S, D92Y, F94T, I96L, L104V
B3: TNT-197 (antibody, mouse IgG2a, kappa)
heavy: EVQLVQSGGGVVQPGRSLRLSCAASGFTFSSYAMHWVRQAPGKGLEWVAVISYDGSNKYYADSVKGRFTISRDNSKNTLYLQMNSLRAEDTAVYYCARATLQLWLPLFDYWGQGTLVTVSSAKTTAPSVYPLAPVCGDTTGSSVTLGCLVKGYFPEPVTLTWNSGSLSSGVHTFPAVLQSDLYTLSSSVTVTSSTWPSQSITCNVAHPASSTKVDKKIEPRGPTIKPCPPCKCPAPNLLGGPSVFIFPPKIKDVLMISLSPIVTCVVVDVSEDDPDVQISWFVNNVEVHTAQTQTHREDYNSTLRVVSALPIQHQDWMSGKEFKCKVNNKDLPAPIERTISKPKGSVRAPQVYVLPPPEEEMTKKQVTLTCMVTDFMPEDIYVEWTNNGKTELNYKNTEPVLDSDGSYFMYSKLRVEKKNWVERNSYSCSVVHEGLHNHHTTKSFSRTPGRPQGFGPP
light: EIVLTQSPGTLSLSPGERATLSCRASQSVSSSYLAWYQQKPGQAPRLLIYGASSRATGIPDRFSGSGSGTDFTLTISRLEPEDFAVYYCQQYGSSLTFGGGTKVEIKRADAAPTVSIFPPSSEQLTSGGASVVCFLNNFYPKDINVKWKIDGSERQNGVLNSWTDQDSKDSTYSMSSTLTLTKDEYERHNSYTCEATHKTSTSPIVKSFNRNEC

Molecular target: T1, Human nectin-4 ECD-6His (TNT-175) (human, UniProt Q96NY8 32-349)
T1 construct: the entry holds the extracellular domain with the C-terminal 6His tag
T1 sequence: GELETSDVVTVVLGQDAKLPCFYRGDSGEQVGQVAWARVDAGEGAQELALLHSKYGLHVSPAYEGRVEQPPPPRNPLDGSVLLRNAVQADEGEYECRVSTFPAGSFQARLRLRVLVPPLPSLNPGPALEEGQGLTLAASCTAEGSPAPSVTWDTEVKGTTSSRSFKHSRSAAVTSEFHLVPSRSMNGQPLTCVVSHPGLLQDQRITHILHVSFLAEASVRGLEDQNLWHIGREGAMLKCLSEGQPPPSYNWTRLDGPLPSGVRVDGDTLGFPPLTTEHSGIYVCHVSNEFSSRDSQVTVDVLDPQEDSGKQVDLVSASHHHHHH
Assay: competition ELISA; nectin-4 ECD premixed with TNT205, captured by the coat antibody; % of signal without premix antibody
How it was run: (§1)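 Goat anti-mouse IgG was coated at 1 mg/mL in PBS overnight at 4° C. Premixes were applied for an hour, then rabbit anti-6×His HRP (1:4,000) for an hour at room temperature, then ABTS for 20 minutes. O.D. values, background-corrected, were reported relative to nectin-4 alone at its lowest dilution.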

Binder	% of Positive [%]
B1	75.3
B2	63.2
B3	57.1

Molecular target: T1, Human nectin-4 ECD-6His (TNT-175)
Assay: competition ELISA; nectin-4 ECD premixed with TNT207, captured by the coat antibody; % of signal without premix antibody
How it was run: as §1

Binder	% of Positive [%]
B1	18.4
B2	18.3
B3	3.4

Molecular target: T1, Human nectin-4 ECD-6His (TNT-175)
Assay: competition ELISA; nectin-4 ECD premixed with TNT201, captured by the coat antibody; % of signal without premix antibody
How it was run: as §1

Binder	% of Positive [%]
B1	6.7
B2	6.6
B3	1.7

Molecular target: T1, Human nectin-4 ECD-6His (TNT-175)
Assay: competition ELISA; nectin-4 ECD premixed with TNT202, captured by the coat antibody; % of signal without premix antibody
How it was run: as §1

Binder	% of Positive [%]
B1	27.9
B2	24.7
B3	7.8

Molecular target: T1, Human nectin-4 ECD-6His (TNT-175)
Assay: competition ELISA; nectin-4 ECD premixed with TNT210, captured by the coat antibody; % of signal without premix antibody
How it was run: as §1

Binder	% of Positive [%]
B1	11
B2	16.3
B3	2.6

Molecular target: T1, Human nectin-4 ECD-6His (TNT-175)
Assay: competition ELISA; nectin-4 ECD premixed with TNT212, captured by the coat antibody; % of signal without premix antibody
How it was run: as §1

Binder	% of Positive [%]
B1	21.2
B2	20.7
B3	2.7

Molecular target: T1, Human nectin-4 ECD-6His (TNT-175)
Assay: competition ELISA; nectin-4 ECD premixed with TNT206, captured by the coat antibody; % of signal without premix antibody
How it was run: as §1

Binder	% of Positive [%]
B1	43.1
B2	35.8
B3	14.3

Molecular target: T1, Human nectin-4 ECD-6His (TNT-175)
Assay: SPR ProteOn, mAb on protein A
Protocol: Initial testing of binding of nectin-4 antibodies to nectin-4. […] Biotinylated protein A (15 μg/mL) was immobilized to the surface of an NLC chip. 30 nM of purified mAb supernatant was diluted in PBS-T and captured over the protein A surface. Serial dilutions of human nectin-4 were injected over the mAb-coated chips, and binding kinetics were determined. Chips were regenerated using 4:1 v/v of IgG elution butter/4M NaCl.

Binder	Kd [nM]	koff [s⁻¹]	kon [M⁻¹ s⁻¹]
B1	0.585	0.0023	3.92e+06
B2	1.34	0.00125	930000
B3	4.28	0.00334	780000

Molecular target: T1, Human nectin-4 ECD-6His (TNT-175)
Assay: competition ELISA; nectin-4 ECD premixed with TNT209, captured by the coat antibody; % of signal without premix antibody
How it was run: as §1

Binder	% of Positive [%]
B1	66.5
B2	56.2
B3	37.2

Molecular target: T1, Human nectin-4 ECD-6His (TNT-175)
Assay: competition ELISA; nectin-4 ECD premixed with TNT204, captured by the coat antibody; % of signal without premix antibody
How it was run: as §1

Binder	% of Positive [%]
B1	18.7
B2	15.2
B3	6.7

Molecular target: T1, Human nectin-4 ECD-6His (TNT-175)
Assay: competition ELISA; nectin-4 ECD premixed with TNT211, captured by the coat antibody; % of signal without premix antibody
How it was run: as §1

Binder	% of Positive [%]
B1	46.1
B2	46.9
B3	32.4

Molecular target: T2, human nectin-4 on cells (human, UniProt Q96NY8 32-510)
T2 construct: whole, on cells; also called PVRL4
T2 sequence (looked up): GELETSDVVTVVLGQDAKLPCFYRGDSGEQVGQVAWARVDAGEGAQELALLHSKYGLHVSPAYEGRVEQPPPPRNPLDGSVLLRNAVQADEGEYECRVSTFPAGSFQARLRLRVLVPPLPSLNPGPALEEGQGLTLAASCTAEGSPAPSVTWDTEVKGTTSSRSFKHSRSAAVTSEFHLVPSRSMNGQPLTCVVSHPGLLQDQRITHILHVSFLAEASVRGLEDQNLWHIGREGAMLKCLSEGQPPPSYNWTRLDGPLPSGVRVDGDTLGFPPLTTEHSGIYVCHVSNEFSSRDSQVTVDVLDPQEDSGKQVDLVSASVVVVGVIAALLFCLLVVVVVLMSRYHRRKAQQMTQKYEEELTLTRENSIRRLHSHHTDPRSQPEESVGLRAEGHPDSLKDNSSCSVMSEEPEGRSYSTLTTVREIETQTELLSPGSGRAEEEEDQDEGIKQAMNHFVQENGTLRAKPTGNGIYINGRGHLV
Assay: flow cytometry MFI, MNK74 (nectin-4 positive) over AGS (negative)

Binder	Fold-change of binding to MNK74 compared to control AGS [fold]
B1	7
B2	6.4
B3	4.8

Molecular target: T1, Human nectin-4 ECD-6His (TNT-175)
Assay: competition ELISA; nectin-4 ECD premixed with TNT208, captured by the coat antibody; % of signal without premix antibody
How it was run: as §1

Binder	% of Positive [%]
B1	26.4
B2	23.1
B3	5.8

Molecular target: T1, Human nectin-4 ECD-6His (TNT-175)
Assay: competition ELISA; nectin-4 ECD premixed with TNT203, captured by the coat antibody; % of signal without premix antibody
How it was run: as §1

Binder	% of Positive [%]
B1	65.2
B2	51.5
B3	39.7
